# Paper PMC9714666 (Frontiers in Immunology, 2022)
# Biological target: 6x(His)-tagged SARS-CoV-1 RBD (SARS-CoV-1, strain , UniProt P59594)
# Experiment: BLI
# Conditions: both partners purified
binder,measurement,value
"D27LE (antibody, V domains shown) VH: QVQLQQSGAEVKKPGSSVKVSCKASGGTFGNWSISWVRQAPGQGLEWMGGIDPSRGEATYAQKFQGRVTITTDESTSTAYMELSSLRSEDTAVYYCARETWYTSGGMDVWGQGTTVTVSS VL: SYELTQPPSVSVAPGKTARITCGGNNIGRKSVHWYQQKPGQAPVLVVYDDSDRPSGIPERFSGSNSGNTATLTISRVEAGDEADYYCQVYDLWSSDYVFGTGTKVEIK",Kd,< 0.01 nM
